Results on four substances are retold here after US20250215050A1.

In assay [1] the target is non-Ig plasma proteins. As to the kind of experiment: flow-through loading of cryo-poor plasma diluted 10-fold, above 10 CVs.
In assay [2] the target is non-Ig plasma proteins. As to the kind of experiment: flow-through loading of diluted cryo-rich plasma, two-column process.
In assay [3] the target is CHO host cell proteins (HCPs). Kind of assay: static binding on resin, competitive, CHO HCPs with 1 mg/mL NIST mAb.
The target of assay [4] is NIST mAb. Kind of assay: static binding on resin, Langmuir isotherm fit; non-competitive, pure NISTmAb solution.
For assay [5], the target named is CHO host cell proteins (HCPs). As to the kind of experiment: static binding on resin, competitive, CHO HCPs with 5 mg/mL NIST mAb.
Assay [6] concerns the target CHO host cell proteins (HCPs). Kind of assay: static binding on resin, Langmuir isotherm fit; non-competitive, null CHO-S harvest; average HCP MW of 40 kDa assumed.
Assay [7] deals with CHO host cell proteins (HCPs). As to the kind of experiment: static binding on resin, Langmuir fit; competitive, CHO HCPs with 1 mg/mL NISTmAb; HCP ELISA. (In an ELISA, binding on a coated surface is turned into a signal by an enzyme label.)
Assay [8] deals with CHO host cell proteins (HCPs). As to the kind of experiment: static binding on resin, Langmuir isotherm fit; non-competitive; average HCP MW of 40 kDa assumed (Table 1 prints 6.50).
For assay [9], the target named is CHO host cell proteins (HCPs). As to the kind of experiment: static binding on resin, Langmuir fit; competitive, CHO HCPs with 5 mg/mL NISTmAb; HCP ELISA.
For assay [10], the target named is CHO host cell proteins (HCPs). As to the kind of experiment: static binding on resin, Langmuir isotherm fit; non-competitive, null CHO-S harvest.
Assay [11] deals with CHO host cell proteins (HCPs). As to the kind of experiment: breakthrough curve, industrial CHO harvest (mAb 1.38 mg/mL, HCP 0.46 mg/mL), residence time 2 min.
Assay [12] has as its target CHO host cell proteins (HCPs). Kind of assay: breakthrough curve, industrial CHO harvest (mAb 1.38 mg/mL, HCP 0.46 mg/mL), residence time 5 min.
In assay [13] the target is CHO host cell proteins (HCPs). Kind of assay: static binding on resin, competitive against non-competitive conditions.
Assay [14] has as its target CHO host cell proteins (HCPs). As to the kind of experiment: breakthrough curve, industrial CHO harvest (mAb 1.38 mg/mL, HCP 0.46 mg/mL), residence time 0.5 min.
The target of assay [15] is CHO host cell proteins (HCPs). Kind of assay: breakthrough curve, industrial CHO harvest (mAb 1.38 mg/mL, HCP 0.46 mg/mL), residence time 1 min.
The target of assay [16] is CHO host cell proteins (HCPs). Kind of assay: adsorption kinetics on resin (FIG. 8A), null CHO-S harvest; average HCP MW of 40 kDa assumed.
For assay [17], the target named is NIST mAb. As to the kind of experiment: adsorption kinetics on resin (FIG. 8A), pure NIST mAb in PBS pH 7.4.
In assay [18] the target is CHO host cell proteins (HCPs). Kind of assay: static binding of CHO HCPs; summary.
Assay [19] concerns the target CHO host cell proteins (HCPs). Kind of assay: dynamic binding of CHO HCPs, residence time 1 min; summary.
Assay [20] concerns the target CHO host cell proteins (HCPs). As to the kind of experiment: static binding, null CHO-S cell culture fluid; summary for G.1 and G.2 together.
The target in assay [21] is CHO host cell proteins (HCPs). Kind of assay: dynamic binding of CHO HCPs, residence time 2 min; summary.
For assay [22], the target named is CHO host cell proteins (HCPs). As to the kind of experiment: dynamic binding, CHO cell culture fluid; summary for G.1 and G.2 together.

A value given as a limit tells only on which side of the number the result lay.

Turning to “second-generation LigaGuard™ adsorbent (plasma work, Examples 5 and 6)”, the QPP at saturation in the assay with non-Ig plasma proteins [1] is 30 mg/mL. The same substance had a binding capacity (mg per mL of resin) in the assay with non-Ig plasma proteins [2] of 32.
On to first generation (G.1) LigaGuard™ resin, for which the Qmax,HCPs in [3] was found to be 13 mg/mL; in assay [5] it was 10 mg per mL. The Kd (in general, the free concentration of one partner at which half of the binding sites on the other are occupied at equilibrium, for simple one-to-one binding) with NIST mAb [4] worked out at 14.2 µM; in assay [6] it was 6.5 µM; in [7], 8.75 µM; in assay [8], 6.75 µM; in assay [9], 8.75 µM. Moreover, the Qmax (static binding capacity) with NIST mAb [4] amounted to 11.5 mg/mL; in assay [7] it was 18.8 mg/mL; in [9] it was 15.6 mg/mL; in [10], 21.8 mg/mL.
For the substance “second generation (G.2) LigaGuard™ resin”, the Qmax,HCPs in [3] was found to be 18 mg per mL; in [5], 16 mg per mL. For the same substance, the DBC10% (dynamic binding capacity at 10% breakthrough) in assay [11] stood at 16.2 mg/mL; in [12], 17.6 mg per mL; in [14], 14.3 mg/mL; in [15], 16.7 mg/mL. Moreover, the Kd in the assay with NIST mAb [4] came out at 28.3 µM; in [6], 3.25 µM; in assay [7] it was 4.25 µM; in assay [9], 4.75 µM. The Qmax (static binding capacity) was 10.5 mg/mL in the assay with NIST mAb [4], 23.1 mg/mL in assay [7], 22.4 mg/mL in assay [9] and 24.5 mg/mL in assay [10]. The decrease of Qmax,HCPs on adding 1 mg/mL mAb in [13] was found to be 25%. Further, the kon – broadly, the rate constant with which the complex forms – amounted to 39000 M⁻¹ s⁻¹ in assay [16] and 8710 M⁻¹ s⁻¹ in the assay with NIST mAb [17].
Take LigaGuard™: the equilibrium capacity (mg per mL of resin) in assay [18] came out at 30. In addition, the 10% breakthrough capacity was under 16 mg/mL in assay [19] and under 22 mg/mL in assay [21]. In [20], the Qmax (maximum binding capacity) (mg per mL of resin) lay within 28 to 30. The DBC10% in [22] lay in the range of 16 to 22 mg/mL.
